This test concerns the target T1, CusB (E. coli, UniProt P77239 29-407).
T1 sequence (looked up): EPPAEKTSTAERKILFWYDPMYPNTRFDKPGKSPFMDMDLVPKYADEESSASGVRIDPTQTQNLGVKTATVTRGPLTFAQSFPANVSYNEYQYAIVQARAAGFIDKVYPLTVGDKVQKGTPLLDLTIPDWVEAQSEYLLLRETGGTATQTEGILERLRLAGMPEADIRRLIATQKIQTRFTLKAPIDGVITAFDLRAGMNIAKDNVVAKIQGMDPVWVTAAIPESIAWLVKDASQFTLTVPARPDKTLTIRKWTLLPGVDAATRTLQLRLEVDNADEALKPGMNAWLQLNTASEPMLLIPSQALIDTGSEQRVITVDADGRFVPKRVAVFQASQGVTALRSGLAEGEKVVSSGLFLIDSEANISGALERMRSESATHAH
Put plainly: NMR 15N relaxation.

B1: CusF (natural protein, E. coli, UniProt P77214 22-110, looked up)
chain: ANEHHHETMSEAQPQVISATGVVKGIDLESKKITIHHDPIAAVNWPEMTMRFTITPQTKMSEIKTGDKVAFNFVQQGNLSLLQDIKVSQ
The Kd is the constant that tells how readily two partners part at equilibrium. A low value points to a tighter complex. Regarding B1, the Kd was roughly 160 µM.

Source of the values: article PMC3072847 (Biochemistry, 2011).
